The record followed here is paper PMC2794542.

The term stoichiometry N denotes the number of molecules, sites or subunits per partner or assembly.

This assay addresses full length LRRK2, FLAG-tagged and V5-tagged copies co-expressed (human) (UniProt Q5S007). Briefly: co-IP; 293T cells co-transfected with FLAG- and V5-LRRK2; gel filtration fractions 20-23 (α-complex, ~600 kDa) pooled, immunoprecipitated with anti-FLAG, blotted with anti-FLAG and anti-V5, densitometry. The settings on record: remark: other sources report otherwise. In general terms: SEC sorts molecules by how far they enter the pores of the column.

In the case of “full length LRRK2, FLAG-tagged and V5-tagged copies co-expressed, Q5S007 1-2527”, the ratio of FLAG-LRRK2 to V5-LRRK2 in the anti-FLAG IP was 1.87 and the stoichiometry N worked out at 2.
